Experimental data reported in article PMC3162038.

Substrate: N[C@H]1C[C@H](COP(=O)(O)O)[C@@H](O)[C@H](O)[C@H]1O
Experiment: PK/LDH coupled colorimetric assay at A340, Hanes-Woolf plot
Format: biochemical, Streptomyces hygroscopicus
Conditions: 300 μM GDP-valienol, 50 mM Tris-HCl pH 7.5, 5 mM MgCl2, apparent

B1: VldE (Streptomyces hygroscopicus subsp. limoneus) (protein)
chain: MTGSEIFLASKRAAITYDTDPATGEPRAWLAPGGTGNVVAEQAGVLNISWIASADSEDDRRASALNPDGVTMELHSGREILVRLIRHDPAVFRNVQNFMTANLMWAANNYGWDRWTQPSFGSDAREGWADFGRFTRDFADAILKSSAQSADPVYLVHDYQLVGVPALLREQRPDAPILLFVHIPWPSADYWRILPKEIRTGILHGMLPATTIGFFADRWCRNFLESVADLLPDARIDREAMTVEWRGHRTRLRTMPLGYSPLTLDGRNPQLPEGIEEWADGHRLVVHSGRTDPIKNAERAVRAFVLAARGGGLEKTRMLVRMNPNRLYVPANADYVHRVETAVAEANAELGSDTVRIDNDNDVNHTIACFRRADLLIFNSTVDGQNLSTFEAPLVNERDADVILSETCGAAEVLGEYCRSVNPFDLVEQAEAISAALAAGPRQRAEAAARRRDAARPWTLEAWVQAQLDGLAADHAARTATAERFDTAPAVSTRADL
  Km: 308.0 ± 34.5 µM
